US20120302492A1

Molecular target: GPIIb/IIIa protein (UniProt P08514)
Assay: equal mix of wt and RGD1 phage bound to GPIIb/IIIa-coated plate, eluted, phagemid DNA analysis

B1: phage wtCD59 (CD59-gIII fusion protein displayed on phage) (protein, human, UniProt P13987 26-102, looked up, not shown: small tags and cut ends; large carriers)
chain: LQCYNCPNPTADCKTAVNCSSDFDACLITKAGLQVYNKCWKFEHCNFNDVTTRLRENELTYYCCKKDLCNFNEQLEN
clones recovered among 12 picked after binding of an equal phage mix: 1 clones of 12
